This experiment deals with Streptococcus mutans. Description: activity of full length lactoferrin variants expressed in insect cells against S. mutans. It counts as cell-based. Particulars: Lf variant expressed in an insect vector. The source says:
Caries is the single most common chronic childhood disease, five times more common than asthma. Over 70% of children […] have cavities. Over 108 million Americans lack dental health insurance so that treatment of this infection is lacking. S. mutans is considered one of the microbes most associated with dental decay.
Lactoferrin (Lf) is a multifunctional protein that is found in mammary secretion, tears and saliva and in the gastrointestinal tract. Its main function is to sequester iron from its surroundings to prevent oral microbes from attaining iron, a mineral necessary for survival. In addition, in its N-terminus, Lf has a region that has antimicrobial properties. This region is called the defensin region and it has been shown since 1980's that Lf can kill many types of bacteria including oral bacteria. It was also shown that within that N-terminus region, from amino acid position 11 to 31, at least two polymorphic forms exist. For the most part variation in this defensin region at amino acid position 29 can either contain arginine or lysine. […] Further we then determined that pure lactoferrin would have limited usefulness in the oral cavity unless it was linked to something that would allow it to bind to the tooth surface. […]

B1: arginine variant: more common Lf variant with arginine at position 29, expressed in an insect vector (protein, UniProt P02788 20-710, looked up)
Lactotransferrin: GRRRSVQWCAVSQPEATKCFQWQRNMRKVRGPPVSCIKRDSPIQCIQAIAENRADAVTLDGGFIYEAGLAPYKLRPVAAEVYGTERQPRTHYYAVAVVKKGGSFQLNELQGLKSCHTGLRRTAGWNVPIGTLRPFLNWTGPPEPIEAAVARFFSASCVPGADKGQFPNLCRLCAGTGENKCAFSSQEPYFSYSGAFKCLRDGAGDVAFIRESTVFEDLSDEAERDEYELLCPDNTRKPVDKFKDCHLARVPSHAVVARSVNGKEDAIWNLLRQAQEKFGKDKSPKFQLFGSPSGQKDLLFKDSAIGFSRVPPRIDSGLYLGSGYFTAIQNLRKSEEEVAARRARVVWCAVGEQELRKCNQWSGLSEGSVTCSSASTTEDCIALVLKGEADAMSLDGGYVYTAGKCGLVPVLAENYKSQQSSDPDPNCVDRPVEGYLAVAVVRRSDTSLTWNSVKGKKSCHTAVDRTAGWNIPMGLLFNQTGSCKFDEYFSQSCAPGSDPRSNLCALCIGDEQGENKCVPNSNERYYGYTGAFRCLAENAGDVAFVKDVTVLQNTDGNNNEAWAKDLKLADFALLCLDGKRKPVTEARSCHLAMAPNHAVVSRMDKVERLKQVLLHQQAKFGRNGSDCPDKFCLFQSETKNLLFNDNTECLARLHGKTTYEKYLGPQYVAGITNLKKCSTSPLLEACEFLRK
B1: the “killing / survival of S. mutans” value is “little to no effect”.
